One molecule from PMC3755989, “Identification of Amino Acid Residues of ERH Required for Its Recruitment to Nuclear Speckles and Replication Foci in HeLa Cells” (PLoS ONE, 2013) can be followed below.

This assay concerns the target T1, FLAG-tagged wild-type human ERH (enhancer of rudimentary homolog) (human, UniProt P84090 1-104).
T1 construct: wild-type human ERH, expressed from pQE30/ERH-FLAG (formerly pQE30/ER-FLAG); also called ERH-FLAG; wild-type ERH
The assay is described as follows: pull-down; GST-PDIP46/SKAR[L7]- or GST-Ciz1[B]-coated Glutathione-Agarose beads incubated with equal amounts of purified FLAG-tagged ERH forms; binding buffer 20 mM HEPES pH 7.4, 50 mM NaCl, 75 mM KCl, 1 mM DTT, 1 mM EDTA, 10% glycerol, 0.05% Triton X-100; western blotting with anti-FLAG antibody. As to conditions: both partners purified.

B1: GST-tagged fragment L7 of human PDIP46/SKAR (domain or fragment)
chain: NKEEPPKELPAAEPVLSPLEGTKMTVNNLHPRVTEEDIVELFCVCGALKRARLVHPGVAEVVFVKKDDAITAYKKYNNRCLDGQPMKCNLHMNGNVITSDQPILLRLSDSPSMKKESELPRRVNSASSSNPPAEVDPDTILKALFKSSGASVTTQPTEFKIKL
notes: fragment L7 of human PDIP46/SKAR comprising residues 259-421, expressed from pGEX-4T-1/PDIP46/SKAR[L7]; also called GST-PDIP46/SKAR[L7]; PDIP46/SKAR[L7]; source: E. coli XL1 Blue MRF', batch purified on Glutathione-Agarose beads
On to B1, for which the binding result was “binds”.
